Laboratory results reported in paper PMC11100570 (Science Advances, 2024).

B1: GST-Doc2B 13 to 80 (Mid-L) (domain or fragment, mouse, UniProt P70169 13-80, looked up)
chain: SIQEHMAIDVCPGPIRPIKQISDYFPRFPRGLPPTAAPRAPAPPDAPARSPAASASPRSPSDGARDDD
B2: GST-Doc2B FL (full-length Doc2B, residues 1 to 412) (natural protein, mouse, UniProt P70169 1-412, looked up)
chain: MTLRRRGEKATISIQEHMAIDVCPGPIRPIKQISDYFPRFPRGLPPTAAPRAPAPPDAPARSPAASASPRSPSDGARDDDEDVDQLFGAYGASPGPSPGPSPARPPAKPPEDEPDVDGYESDDCTALGTLDFSLLYDQENNALHCTISKAKGLKPMDHNGLADPYVKLHLLPGASKANKLRTKTLRNTLNPSWNETLTYYGITDEDMVRKTLRISVCDEDKFRHNEFIGETRVPLKKLKPNHTKTFSICLEKQLPVDKAEDKSLEERGRILISLKYSSQKQGLLVGIVRCAHLAAMDANGYSDPYVKTYLKPDVDKKSKHKTAVKKKTLNPEFNEEFCYEIKHGDLAKKTLEVTVWDYDIGKSNDFIGGVVLGINAKGERLKHWFDCLKNKDKRIERWHTLTNELPGAVLSD

Experiments:
[1] = target: Munc13-1 MUN domain (residues 933 to 1407, EF, 1453 to 1531) (rat, UniProt Q62768 933-1407; Q62768 1453-1531); test: ITC
MUN W1165A = MUN W1165A (rat, UniProt Q62768 933-1407; Q62768 1453-1531, W1165A); test: pull-down

Binder | fold change of the dissociation constant against Doc2B (13 to 37) [1] [fold] | binding result (MUN W1165A) | stoichiometry N [1]
B1 | 10 | – | –
B2 | 10 | binds | 1
